# Tested on: GST-IRS-1 C-terminus fusion protein containing Ser1101
# Sequence (chain, as listed by the source): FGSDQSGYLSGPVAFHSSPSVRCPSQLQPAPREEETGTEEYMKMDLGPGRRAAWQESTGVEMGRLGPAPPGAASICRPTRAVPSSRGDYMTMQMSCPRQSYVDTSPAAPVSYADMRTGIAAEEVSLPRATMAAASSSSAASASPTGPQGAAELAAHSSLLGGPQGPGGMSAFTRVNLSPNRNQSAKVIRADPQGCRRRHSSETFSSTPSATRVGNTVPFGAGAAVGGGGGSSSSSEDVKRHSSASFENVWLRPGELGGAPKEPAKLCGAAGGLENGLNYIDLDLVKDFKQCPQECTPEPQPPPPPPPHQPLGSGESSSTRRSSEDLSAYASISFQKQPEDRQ
row,Substance,"in vitro kinase reaction, phosphorylation at Ser1101 by Western blot"
1,"Akt kinase, active","The Akt kinase could not effectively phosphorylate IRS-1 at Ser1101, despite the occurrence of this residue within a putative Akt motif"
2,"protein kinase C theta, active, purified",PKC theta is the only PKC isoform that robustly phosphorylated the GST-IRS-1 fusion protein substrate at Ser1101

# Reference: patent publication US20040097713
